Laboratory results taken from paper PMC5752674, “Redox regulation of PEP activity during seedling establishment in Arabidopsis thaliana” (Nature Communications, 2018).

Assays:
[1] = biological target: PRIN2 in isolated chloroplasts of a 35S:PRIN2 line (Arabidopsis thaliana) (UniProt Q9XIK0); experiment: non-reducing SDS-PAGE with immunoblot; protein extracts of isolated chloroplasts (35S:PRIN2 line; WT plants kept in light or 48 h in the dark) or of Arabidopsis cell culture (dark, light, light with 10 mM H2O2, DCMU, MV, high light), nonreducing conditions, anti-PRIN2 polyclonal antibody
[2] = biological target: T1, PRIN2 (PLASTID REDOX INSENSITIVE2), recombinant without transit peptide (Arabidopsis thaliana) (UniProt Q9XIK0); experiment: competition EMSA; settings: EMSA with 3 ug PRIN2 per reaction; buffer, salt, pH and temperature not given in the material
T1 sequence: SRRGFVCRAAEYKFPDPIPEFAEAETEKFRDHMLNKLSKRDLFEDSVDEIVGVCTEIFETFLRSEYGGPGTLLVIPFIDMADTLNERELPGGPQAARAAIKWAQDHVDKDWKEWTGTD

[3] = biological target: endogenous PRIN2 of Arabidopsis (Arabidopsis thaliana (endogenous in Col-0 plants and cell culture)) (UniProt Q9XIK0); experiment: non-reducing SDS-PAGE with immunoblot; protein extracts of isolated chloroplasts (35S:PRIN2 line; WT plants kept in light or 48 h in the dark) or of Arabidopsis cell culture (dark, light, light with 10 mM H2O2, DCMU, MV, high light), nonreducing conditions, anti-PRIN2 polyclonal antibody
[4] = biological target: recombinant Arabidopsis PRIN2 WT (PLASTID REDOX …2), without the transit peptide (Arabidopsis thaliana) (UniProt Q9XIK0); experiment: non-reducing SDS-PAGE; purified recombinant protein (1 ug), untreated (air), with 5 mM DTT or other DTT concentrations, or with 2 mM H2O2; 15% polyacrylamide, nonreducing conditions, Coomassie Brilliant Blue; disulfide-linked dimer to monomers
[5] = biological target: PRIN2 Cys115Ser (C2S) in transgenic prin2-2 + C2S lines (Arabidopsis thaliana) (UniProt Q9XIK0); experiment: SDS-PAGE with immunoblot; protein of transgenic prin2-2 lines with PRIN2 variants (Supplementary Figs. 4c and 5); conditions not shown
[6] = biological target: T2, PRIN2 (PLASTID REDOX …2), recombinant without transit peptide (Arabidopsis thaliana, UniProt Q9XIK0 62-179); experiment: EMSA; 3 ug protein; competed by 50-fold unlabeled ycf1; EMSA with 3 ug PRIN2 per reaction; buffer, salt, pH and temperature not given in the material; settings: tags: His (pET-His1a), label: biotin 3' end (Biotin-14-dCTP), blunt
T2 sequence: T1 sequence

[7] = biological target: T2, PRIN2 (PLASTID REDOX …2), recombinant …; experiment: competition EMSA; 50-fold excess over labeled ycf1; EMSA with 3 ug PRIN2 per reaction; buffer, salt, pH and temperature not given in the material; settings: protein: recombinant, tags: His (pET-His1a), label: none, blunt
[8] = biological target: the molecule itself; experiment: SDS-PAGE with immunoblot; input protein extracts of protoplasts transformed with PRIN2-cMyc or TRXz-HA, probed with anti-cMyc or anti-HA; whether reducing or not is not stated

Molecule: PRIN2 in isolated chloroplasts of a 35S:PRIN2 line (from UniProt Q9XIK0 70-179) (natural protein)
- stoichiometry N [1]: 2

Molecule: GAAACAGTATAACATGACTTATATAGCCATGTCAACCAATGTAAAATGGATAAGATCCTTTTAGTTTAGATTCATAAAAAATTTTTTGTAATCGATGAAATAAATTAGAAGCGAATCCACATACATAGAAATAGAATTGCTCTAGGAATATTTTTTCCAAATCATATGAATACGATTGAATACGATCCGTAGTGGGT (double strand) [psbA promoter competitor (psbA_197)]
- binding [2]: binds

Molecule: endogenous PRIN2 of Arabidopsis (from UniProt Q9XIK0 70-179) (natural protein)
- stoichiometry N [3]: 2

Molecule: recombinant Arabidopsis PRIN2 WT (PLASTID REDOX …2), without the transit peptide (from UniProt Q9XIK0 70-179) (natural protein)
- stoichiometry N [4]: 2

Molecule: PRIN2 Cys115Ser (C2S) in transgenic prin2-2 + C2S lines (from UniProt Q9XIK0 70-179) (natural protein)
- stoichiometry N [5]: 2

B1: ycf1 promoter probe (dsDNA)
DNA 1: CCATTCATTTAATATCCCTTTGGTGTCATTGACATAAGAGAT
DNA 2: ATCTCTTATGTCAATGACACCAAAGGGATATTAAATGAATGG
- binding result [6]: binds

B2: clpP promoter competitor (dsDNA)
DNA 1: CGAAACCCCAATTTTACGTTTCCACATCAAAGTGAAATAGAGAA
DNA 2: TTCTCTATTTCACTTTGATGTGGAAACGTAAAATTGGGGTTTCG
- binding result [7]: binds

B3: TRXz-HA (full-length Thioredoxin z fused to an HA tag) (natural protein, Arabidopsis thaliana, UniProt Q9M7X9 82-183, looked up)
chain: AQELQELVKGDRKVPLIVDFYATWCGPCILMAQELEMLAVEYESNAIIVKVDTDDEYEFARDMQVRGLPTLFFISPDPSKDAIRTEGLIPLQMMHDIIDNEM
notes: also called pRT104-TRXz-HA; source: Arabidopsis Ler suspension culture protoplasts, transiently transformed, in protein extract
- stoichiometry N [8]: 2

B4: PRIN2-cMyc (full-length PRIN2 fused to a cMyc tag) (natural protein, Arabidopsis thaliana, UniProt Q9XIK0 68-179, looked up)
chain: CRAAEYKFPDPIPEFAEAETEKFRDHMLNKLSKRDLFEDSVDEIVGVCTEIFETFLRSEYGGPGTLLVIPFIDMADTLNERELPGGPQAARAAIKWAQDHVDKDWKEWTGTD
notes: also called pRT104-PRIN2-cMyc; source: Arabidopsis Ler suspension culture protoplasts, transiently transformed, in protein extract
- stoichiometry N [8]: 2

B5: rpoB promoter competitor (dsDNA)
DNA 1: TATGGTATGCAATCGAATTGGAATATGTAATATCATAGGTGAAAATGAAATTAC
DNA 2: GTAATTTCATTTTCACCTATGATATTACATATTCCAATTCGATTGCATACCATA
- binding result [7]: binds

B6: psaA U region competitor (dsDNA)
DNA 1: TTTTTTAATTATAAAAAAGGGTCCGTTGAGCACCCTATCCAT
DNA 2: ATCCATAGGGTGCTCAACGGACCCTTTTTTATAATTAAAAAA
- binding result ([7]; as printed, strands mismatch near the 3' end of strand 1 (possible misprint)): binds
